Source: PMC4751278 (2016)

Target: T1, Hik2-GST (full-length Histidine kinase 2 of Synechocystis sp. PCC 6803, GST-tagged) (Synechocystis sp. (strain ATCC 27184 / …, UniProt P73276))
T1 chain: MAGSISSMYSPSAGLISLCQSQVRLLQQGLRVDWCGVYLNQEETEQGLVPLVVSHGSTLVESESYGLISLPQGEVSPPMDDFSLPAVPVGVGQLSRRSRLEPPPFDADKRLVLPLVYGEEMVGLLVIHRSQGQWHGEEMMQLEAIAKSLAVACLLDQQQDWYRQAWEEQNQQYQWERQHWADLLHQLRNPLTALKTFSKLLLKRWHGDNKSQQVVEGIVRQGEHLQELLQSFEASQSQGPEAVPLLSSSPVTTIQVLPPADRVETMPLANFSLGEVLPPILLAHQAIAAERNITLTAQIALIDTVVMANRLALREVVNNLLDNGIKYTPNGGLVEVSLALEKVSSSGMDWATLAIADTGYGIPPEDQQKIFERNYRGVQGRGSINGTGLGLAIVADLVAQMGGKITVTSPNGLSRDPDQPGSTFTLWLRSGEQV
Test: GST pull-down

binding result: binds
B1: Rre1_Rec-His6 (receiver domain of Response regulator 1) (protein)
chain: MAEPISLLLVDDEPGVRESVQAFLEDSGDFKVDLAANATEAWDYLQHHLPALVISDIMMPQVDGYQFLQKLREDARFQSLPVVFLTARGMTGDRIQGYQTGCDAFLSKPFDPDELEAIVRNLL
